# Results: PMC5447021, “TNF Lectin-Like Domain Restores Epithelial Sodium Channel Function in Frameshift Mutants Associated with Pseudohypoaldosteronism Type 1B” (Frontiers in Immunology, 2017)
# Tests used:
# αβγ-hENaC = molecular target: T1, αβγ-hENaC (Homo sapiens, UniProt P37088+P51168+P51170); test: Whole-cell patch clamp, WT αβγ-hENaC; assay type: cell-based
# T1 construct: expressed in transfected cells; host or cells: HEK-293
# T1 sequence (P37088 1-669): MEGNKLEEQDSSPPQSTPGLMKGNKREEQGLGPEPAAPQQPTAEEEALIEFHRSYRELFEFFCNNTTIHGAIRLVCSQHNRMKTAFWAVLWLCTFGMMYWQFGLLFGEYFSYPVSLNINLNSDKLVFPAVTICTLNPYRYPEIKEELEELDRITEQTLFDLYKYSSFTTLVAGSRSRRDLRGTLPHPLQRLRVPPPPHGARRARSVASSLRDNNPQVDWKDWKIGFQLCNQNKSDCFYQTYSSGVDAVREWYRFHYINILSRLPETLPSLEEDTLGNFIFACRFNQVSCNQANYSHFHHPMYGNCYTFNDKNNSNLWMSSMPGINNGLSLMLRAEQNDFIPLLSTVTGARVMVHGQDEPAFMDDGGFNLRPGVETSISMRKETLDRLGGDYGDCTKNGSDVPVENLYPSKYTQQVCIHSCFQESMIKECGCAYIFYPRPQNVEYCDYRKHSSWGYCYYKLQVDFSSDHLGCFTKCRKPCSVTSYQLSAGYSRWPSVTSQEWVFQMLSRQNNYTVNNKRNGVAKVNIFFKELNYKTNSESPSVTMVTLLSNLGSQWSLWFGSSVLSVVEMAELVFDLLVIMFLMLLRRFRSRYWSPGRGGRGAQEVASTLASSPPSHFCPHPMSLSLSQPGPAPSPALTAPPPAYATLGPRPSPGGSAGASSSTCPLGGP
# T1 sequence (P51168 1-640 partner): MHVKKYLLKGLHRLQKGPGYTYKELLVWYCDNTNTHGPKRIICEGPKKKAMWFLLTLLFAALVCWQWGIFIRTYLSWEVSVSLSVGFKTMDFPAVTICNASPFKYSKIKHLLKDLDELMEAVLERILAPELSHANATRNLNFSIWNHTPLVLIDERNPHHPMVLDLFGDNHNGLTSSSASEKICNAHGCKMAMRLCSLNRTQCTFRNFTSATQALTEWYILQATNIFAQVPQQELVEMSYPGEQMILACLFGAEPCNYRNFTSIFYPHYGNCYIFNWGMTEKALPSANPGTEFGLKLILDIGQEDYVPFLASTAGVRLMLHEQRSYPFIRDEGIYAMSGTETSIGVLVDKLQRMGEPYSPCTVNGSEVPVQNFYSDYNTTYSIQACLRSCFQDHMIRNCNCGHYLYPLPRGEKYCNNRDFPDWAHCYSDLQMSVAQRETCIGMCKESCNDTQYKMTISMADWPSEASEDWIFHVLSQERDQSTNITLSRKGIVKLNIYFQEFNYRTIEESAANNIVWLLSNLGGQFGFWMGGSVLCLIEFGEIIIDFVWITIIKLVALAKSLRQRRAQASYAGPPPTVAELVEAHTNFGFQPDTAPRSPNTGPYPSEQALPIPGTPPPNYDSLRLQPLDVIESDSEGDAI
# T1 sequence (P51170 1-649 partner): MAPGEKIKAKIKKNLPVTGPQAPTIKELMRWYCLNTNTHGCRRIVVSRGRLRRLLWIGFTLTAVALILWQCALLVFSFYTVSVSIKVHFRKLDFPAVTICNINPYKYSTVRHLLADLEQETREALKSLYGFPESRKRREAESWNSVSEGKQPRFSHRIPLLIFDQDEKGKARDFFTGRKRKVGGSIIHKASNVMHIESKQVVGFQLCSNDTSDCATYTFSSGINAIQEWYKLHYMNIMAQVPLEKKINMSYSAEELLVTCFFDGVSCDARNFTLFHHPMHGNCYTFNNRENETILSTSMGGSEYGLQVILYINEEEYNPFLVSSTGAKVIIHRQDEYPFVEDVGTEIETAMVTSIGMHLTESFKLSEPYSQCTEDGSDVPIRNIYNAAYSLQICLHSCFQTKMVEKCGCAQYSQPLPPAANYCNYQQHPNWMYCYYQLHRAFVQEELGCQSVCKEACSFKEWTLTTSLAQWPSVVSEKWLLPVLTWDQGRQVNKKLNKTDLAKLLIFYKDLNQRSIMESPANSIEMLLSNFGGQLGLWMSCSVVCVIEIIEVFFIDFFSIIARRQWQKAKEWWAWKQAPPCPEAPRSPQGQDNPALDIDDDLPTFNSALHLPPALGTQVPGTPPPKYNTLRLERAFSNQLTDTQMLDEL
# Experimental: Point mutations of α-, β-, γ- and δ-hENaC and PHA1B frameshift mutations of α-hENaC were prepared with the QuikChange Lightning Site-Directed Mutagenesis Kit (Agilent Technologies, CA, USA). Mutagenic primers were designed individually with the Primer Design Program provided on the producer’s website or for the frameshift mutations the same base changes as reported in patients (see Table 2) were performed. Primers were ordered from Sigma-Aldrich, Vienna, Austria.
# (§1) HEK-293 cells were transfected 1 day after cell seeding using X-tremeGENE HP DNA transfection reagent (Roche Diagnostics, Mannheim, Germany) according to the manufacturer’s protocol. A set of WT or mutant αβγ- or δβγ-hENaC, or α-, β-, γ-, or δ-hENaC alone was used, and the ratio of DNA to transfection reagent was 1:3. The expression was highest 48–72 h after transfection.
# (§2) Electrophysiological experiments were performed as described in detail by Shabbir et al. ([16]). […] Currents were recorded with the patch clamp method in the whole-cell mode. The chamber contained 1 ml of the bath solution of the following composition (in mM): 145 NaCl, 2.7 KCl, 1.8 CaCl2, 2 MgCl2, 5.5 glucose, and 10 HEPES, adjusted to pH 7.4 with 1 M NaOH solution. Micropipettes were pulled from thin-walled borosilicate glass capillaries (Harvard Apparatus, Holliston, MA, USA) with a DMZ Zeitz Puller to obtain electrode resistances ranging from 2 to 5 MΩ. The pipette solution contained (in millimolars): 135 potassium methane sulfonate, 10 KCl, 6 NaCl, 1 Mg2ATP, 2 Na3ATP, 10 HEPES, and 0.5 EGTA, adjusted to pH 7.2 with 1 M KOH solution. Chemicals for pipette and bathing solutions were supplied by Sigma-Aldrich (Vienna, Austria). Electrophysiological measurements were carried out with an Axopatch 200B patch clamp amplifier (Axon Instruments, CA, USA). Capacity transients were canceled, and series resistance was compensated. Whole-cell currents were filtered at 5 kHz and sampled at 10 kHz. Data acquisition and storage were processed directly to a PC equipped with pCLAMP 10.2 software (Axon Instruments, CA, USA). […]
# α-hENaC = molecular target: T2, α-hENaC (Homo sapiens, UniProt P37088); test: Whole-cell patch clamp, α-hENaC alone; assay type: cell-based; conditions: TNF, -100 mV, mean ± S.E., n = 5, p < 0.001 vs solnatide
# T2 construct: expressed in transfected cells; host or cells: HEK-293
# T2 sequence (P37088 1-669): T1 sequence (P37088 1-669)
# Experimental: as §1
# as §2, with “USA).” for “USA). Capacity transients were canceled, and series resistance was compensated. Whole-cell currents were filtered at 5 kHz and sampled at 10 kHz. Data acquisition and storage were processed directly to a PC equipped with pCLAMP 10.2 software (Axon Instruments, CA, USA).”
# β-hENaC = molecular target: T3, β-hENaC (Homo sapiens, UniProt P51168); test: Whole-cell patch clamp, β-hENaC alone; assay type: cell-based; conditions: TNF, mean ± S.E., n = 5
# T3 construct: expressed in transfected cells; host or cells: HEK-293
# T3 sequence (P51168 1-640): T1 sequence (P51168 1-640 partner)
# Experimental: as §1
# as §2, with “USA).” for “USA). Capacity transients were canceled, and series resistance was compensated. Whole-cell currents were filtered at 5 kHz and sampled at 10 kHz. Data acquisition and storage were processed directly to a PC equipped with pCLAMP 10.2 software (Axon Instruments, CA, USA).”
# δ-hENaC = molecular target: T4, δ-hENaC (Homo sapiens, UniProt P51172); test: Whole-cell patch clamp, δ-hENaC alone; assay type: cell-based; conditions: TNF, mean ± S.E., n = 5, p < 0.001 vs solnatide
# T4 construct: expressed in transfected cells; host or cells: HEK-293
# T4 sequence (P51172 1-638 isoform P51172-1): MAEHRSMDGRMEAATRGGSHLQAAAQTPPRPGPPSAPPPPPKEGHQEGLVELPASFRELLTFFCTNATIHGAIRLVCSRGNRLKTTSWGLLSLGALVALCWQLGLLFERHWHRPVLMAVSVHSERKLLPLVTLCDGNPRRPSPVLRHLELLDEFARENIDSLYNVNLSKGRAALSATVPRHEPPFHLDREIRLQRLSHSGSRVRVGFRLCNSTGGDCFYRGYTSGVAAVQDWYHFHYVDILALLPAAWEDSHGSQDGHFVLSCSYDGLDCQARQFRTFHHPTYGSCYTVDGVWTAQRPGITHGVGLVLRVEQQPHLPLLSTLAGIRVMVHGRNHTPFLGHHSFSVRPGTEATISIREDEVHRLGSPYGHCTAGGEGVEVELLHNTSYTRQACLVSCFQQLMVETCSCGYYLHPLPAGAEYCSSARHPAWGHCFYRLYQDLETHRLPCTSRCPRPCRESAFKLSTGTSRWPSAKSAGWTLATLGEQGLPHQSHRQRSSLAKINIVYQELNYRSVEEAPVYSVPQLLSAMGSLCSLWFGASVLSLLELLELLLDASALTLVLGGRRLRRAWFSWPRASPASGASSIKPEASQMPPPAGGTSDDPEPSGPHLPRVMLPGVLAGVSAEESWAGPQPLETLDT
# Experimental: as §1
# as §2, with “USA).” for “USA). Capacity transients were canceled, and series resistance was compensated. Whole-cell currents were filtered at 5 kHz and sampled at 10 kHz. Data acquisition and storage were processed directly to a PC equipped with pCLAMP 10.2 software (Axon Instruments, CA, USA).”
# [1] = molecular target: wild-type αβγ-hENaC (amiloride-sensitive epithelial sodium channel) (human) (UniProt P37088)
# [2] = molecular target: α-hENaC expressed alone (human) (UniProt P37088)
# [3] = molecular target: β-hENaC expressed alone (human) (UniProt P51168)
# [4] = molecular target: γ-hENaC expressed alone (human) (UniProt P51170)
# [5] = molecular target: δ-hENaC expressed alone (human) (UniProt P51172)
# αN232Qβγ-ENaC (human) = αN232Qβγ-ENaC (human) (UniProt P37088)
# αN511Qβγ-ENaC (human) = αN511Qβγ-ENaC (human) (UniProt P37088)
# αR448fsβγ-ENaC (human) = αR448fsβγ-ENaC (human) (UniProt P37088)
compound,measurement,setting,value
"N=C(N)NC(=O)c1nc(Cl)c(N)nc1N [amiloride, reference compound]",Block of induced current by amiloride,"αβγ-hENaC; 10 µM amiloride, TNF- or solnatide-induced current",blocked by 10 µM amiloride within a few pulses
"TNF: Tumor necrosis factor (CAS Registry Number 94948-59-1, Sigma-Aldrich, Austria)",EC50,"αβγ-hENaC; TNF, amiloride-sensitive Na^+ current, αβγ-hENaC in HEK-293, whole-cell, -100 mV, 19–22°C, bath pH 7.4, cumulative addition, mean ± S.E., n = 5, p < 0.001 vs solnatide",6.7 ± 2.1 nM
same,EC50,α-hENaC,4.2 ± 1.9 nM
same,EC50,β-hENaC,18.8 ± 2.9 nM
same,EC50,δ-hENaC,5 ± 0.3 nM
Tumor necrosis factor (TNF) (ligand),"EC50 of TNF for activating amiloride-sensitive Na+ current, whole-cell patch clamp at -100 mV, transfected HEK-293 cells",[1],6.7 nM
same,"maximal TNF-induced amiloride-sensitive Na+ current, whole-cell patch clamp at -100 mV, transfected HEK-293 cells",[1],162 pA
same,"EC50 of TNF for activating amiloride-sensitive Na+ current, whole-cell patch clamp at -100 mV, transfected HEK-293 cells",[2],4.2 nM
same,"maximal TNF-induced amiloride-sensitive Na+ current, whole-cell patch clamp at -100 mV, transfected HEK-293 cells",[2],48.1 pA
same,"EC50 of TNF for activating amiloride-sensitive Na+ current, whole-cell patch clamp at -100 mV, transfected HEK-293 cells",[3],18.8 nM
same,"maximal TNF-induced amiloride-sensitive Na+ current, whole-cell patch clamp at -100 mV, transfected HEK-293 cells",[3],18.5 pA
same,"maximal TNF-induced amiloride-sensitive Na+ current, whole-cell patch clamp at -100 mV, transfected HEK-293 cells",[4],8 pA
same,"EC50 of TNF for activating amiloride-sensitive Na+ current, whole-cell patch clamp at -100 mV, transfected HEK-293 cells",[5],5 nM
same,"maximal TNF-induced amiloride-sensitive Na+ current, whole-cell patch clamp at -100 mV, transfected HEK-293 cells",[5],27.8 pA
same,"maximal TNF-induced current, whole-cell patch clamp, transfected HEK-293 cells",αN232Qβγ-ENaC (human),84.7 pA
same,"maximal TNF-induced current, whole-cell patch clamp, transfected HEK-293 cells",αN511Qβγ-ENaC (human),50.7 pA
same,"fold increase of current (TNF-induced/amiloride-sensitive current), whole-cell patch clamp, transfected HEK-293 cells",αR448fsβγ-ENaC (human),3.5 fold
